The values that follow come from article PMC12442453, “An asymmetric tetrabody is a potent and efficacious agonist of the erythropoietin receptor in vitro and in vivo” (Protein Science : A Publication of the Protein Society, 2025).

For experiment [1], the target named is T1, human EPOR ectodomain (ECD) fused to a human Fc domain (EPOR-Fc) (human, UniProt P19235).
T1 construct: erythropoietin receptor (EPOR), human, ectodomain; Results and legends name EPOR-Fc as the immobilised protein of the ELISA and BLI experiments; the methods describe His-EPOR instead; also called human EPOR-Fc
T1 sequence (P19235 25-250): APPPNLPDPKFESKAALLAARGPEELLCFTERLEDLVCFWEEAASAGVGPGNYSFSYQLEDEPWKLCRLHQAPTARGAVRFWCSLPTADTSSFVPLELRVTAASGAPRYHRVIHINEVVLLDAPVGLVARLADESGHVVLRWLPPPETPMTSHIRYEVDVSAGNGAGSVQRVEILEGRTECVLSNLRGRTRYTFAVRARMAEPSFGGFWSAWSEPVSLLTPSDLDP
Description: BLI; results and legends: EPOR-Fc immobilised, Db-Fc in solution, 600 s association, 600 s dissociation, global 1:1 fit; methods: Abs captured on anti-human Fc sensors, His-EPOR in solution in 3-fold dilutions from 100 nM, 25°C, PBS 0.05% Tween 20. The settings on record: both partners purified. (In BLI a coated tip is dipped into the sample, and binding shifts an interference pattern.)

The target of experiment [2] is T1, human EPOR ectodomain (ECD) fused to a …. Description: ELISA; EPOR-Fc (human or mouse) immobilised by results and legends, Db-Fc or VL–VH protein in solution (single point and serial dilutions), 1 h room temperature, PBST, anti-Fc-HRP; apparent affinities; the methods name His-EPOR as the coated protein. The settings on record: both partners purified. (ELISA stands for enzyme-linked immunosorbent assay.)

Another experiment has as its target T2, His-tagged ECD of CD131 (Homo sapiens (assumed), UniProt P32927).
T2 construct: β-common cytokine receptor (β-CR, CD131), ectodomain; also called β-common cytokine receptor; β-CR
Description: ELISA; His-tagged ECDs of EPOR, CD131 or EPHB4 tested against Db-Fc protein. The settings on record: both partners purified.

Another experiment has as its target T3, His-tagged ECD of EPHB4 (Homo sapiens (assumed), UniProt P54760).
T3 construct: receptor tyrosine kinase EPHB4, ectodomain
The description is as above. The settings on record: both partners purified.

In experiment [3] the target is human EPOR, endogenous on TF-1 cells (Homo sapiens (TF-1 cells), UniProt P19235). Description: cell-based or functional assay.
Chain of human EPOR, endogenous on TF-1 cells (P19235 25-508): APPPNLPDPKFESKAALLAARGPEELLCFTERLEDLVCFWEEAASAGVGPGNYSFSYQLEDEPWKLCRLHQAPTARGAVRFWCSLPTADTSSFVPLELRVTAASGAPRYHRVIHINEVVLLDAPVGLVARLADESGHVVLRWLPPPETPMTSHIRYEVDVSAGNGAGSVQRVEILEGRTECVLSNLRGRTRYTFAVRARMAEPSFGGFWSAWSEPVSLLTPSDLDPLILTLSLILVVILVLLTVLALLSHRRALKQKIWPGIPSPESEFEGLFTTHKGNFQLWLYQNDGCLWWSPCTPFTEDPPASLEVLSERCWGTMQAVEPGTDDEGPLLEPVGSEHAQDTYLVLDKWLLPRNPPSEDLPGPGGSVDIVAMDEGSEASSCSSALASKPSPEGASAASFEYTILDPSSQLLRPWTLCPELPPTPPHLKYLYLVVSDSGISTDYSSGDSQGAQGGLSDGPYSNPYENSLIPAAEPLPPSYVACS

T3 sequence (P54760 16-539): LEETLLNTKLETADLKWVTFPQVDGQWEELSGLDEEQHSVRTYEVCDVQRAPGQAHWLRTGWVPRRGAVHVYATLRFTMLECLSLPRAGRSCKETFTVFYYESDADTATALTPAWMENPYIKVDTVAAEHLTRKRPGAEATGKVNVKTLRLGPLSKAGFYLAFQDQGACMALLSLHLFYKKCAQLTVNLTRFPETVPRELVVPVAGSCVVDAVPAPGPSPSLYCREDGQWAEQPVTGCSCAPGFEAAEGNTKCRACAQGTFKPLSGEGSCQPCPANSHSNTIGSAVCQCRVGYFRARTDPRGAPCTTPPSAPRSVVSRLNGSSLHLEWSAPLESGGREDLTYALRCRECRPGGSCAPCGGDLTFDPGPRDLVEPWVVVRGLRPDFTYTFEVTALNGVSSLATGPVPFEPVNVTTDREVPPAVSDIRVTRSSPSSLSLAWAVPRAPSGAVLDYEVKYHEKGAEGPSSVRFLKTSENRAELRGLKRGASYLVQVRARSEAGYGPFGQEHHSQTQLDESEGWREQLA
T2 sequence (P32927 17-443): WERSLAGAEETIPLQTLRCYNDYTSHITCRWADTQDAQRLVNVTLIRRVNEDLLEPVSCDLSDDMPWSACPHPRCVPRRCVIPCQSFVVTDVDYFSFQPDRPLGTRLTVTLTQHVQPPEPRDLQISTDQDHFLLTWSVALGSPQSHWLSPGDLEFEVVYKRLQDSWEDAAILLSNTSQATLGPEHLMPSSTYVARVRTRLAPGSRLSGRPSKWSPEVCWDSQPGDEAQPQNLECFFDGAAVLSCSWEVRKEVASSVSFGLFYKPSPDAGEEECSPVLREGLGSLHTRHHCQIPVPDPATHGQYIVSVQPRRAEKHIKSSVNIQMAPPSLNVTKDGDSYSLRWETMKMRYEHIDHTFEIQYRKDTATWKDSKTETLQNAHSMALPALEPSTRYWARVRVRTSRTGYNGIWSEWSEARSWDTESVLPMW

B1: Db-Fc 1 (Fc fusion)
VH: EVQLVESGGGLVQPGGSLRLSCAASGFNLYSYYIHWVRQAPGKGLEWVASISPYYSYTYYADSVKGRFTISADTSKNTAYLQMNSLRAEDTAVYYCARHGYGAMDYWGQGTLVTVSS
VL: DIQMTQSPSSLSASVGDRVTITCRASQSVSSAVAWYQQKPGKAPKLLIYSASSLYSGVPSRFSGSRSGTDFTLTISSLQPEDFATYYCQQSSYSLITFGQGTKVEIK
notes: VL domain of clone 1 (human framework of the Db library); Gly5 linker between VL and VH; VH domain of clone 1; IMGT numbering, heavy chain; Diabody-Fc fusion (VL-Gly5-VH-Fc); Protein-A purified preparation: mainly the dimeric Db-Fc, with a minor earlier-eluting SEC peak (putative Tb-Fc2); also called Db 1; VL–VH 1; source: Expi293, transient expression, purified (rProtein-A); not shown: Fc, …
As usually defined, the Kd is the concentration at which binding is half-saturated. A lower Kd goes with a tighter complex. What is called EC50 is the concentration at which the effect is half-maximal. Molecule B1 showed a Kd in experiment [1] of 1.5 nM. Further, the EC50 in experiment [2] was found to be 1.5 nM. For the same molecule, the binding result with His-tagged ECD of CD131 and with His-tagged ECD of EPHB4 was “no binding” each time. The “UT-7/Epo cell proliferation (ATP/luciferase luminescence), EC50” value in experiment [3] was 0.2 nM.

B2: Db-Fc 1.1 (Fc fusion)
VH: EVQLVESGGGLVQPGGSLRLSCAASGFNLRSYYMHWVRQAPGKGLEWVASISPYYSYTYYADSVKGRFTISADTSKNTAYLQMNSLRAEDTAVYYCARHGYGAMDYWGQGTLVTVSS
VL: DIQMTQSPSSLSASVGDRVTITCRASQSVSSAVAWYQQKPGKAPKLLIYSASSLYSGVPSRFSGSRSGTDFTLTISSLQPEDFATYYCQQSSYSLITFGQGTKVEIK
notes: VL domain of variant 1.1; Gly5 linker between VL and VH; VH domain of variant 1.1; Diabody-Fc fusion; >99% eluted as the Db-Fc form by SEC; Called Db-Fcmix 1.1 where not fractionated by preparative SEC; also called variant 1.1; Db-Fcmix 1.1; source: Expi293, transient expression, purified (rProtein-A); not shown: Fc, C-terminal, kept
Consider B2, for which the Kd in experiment [1] was determined as 5 nM.

B3: Db-Fc 1.2 (Fc fusion)
VH: EVQLVESGGGLVQPGGSLRLSCAASGFNLRSYYMHWVRQAPGKGLEWVASIAPYHGYTYYADSVKGRFTISADTSKNTAYLQMNSLRAEDTAVYYCARHGYGALDYWGQGTLVTVSS
VL: DIQMTQSPSSLSASVGDRVTITCRASQSVSSAVAWYQQKPGKAPKLLIYSASSLYSGVPSRFSGSRSGTDFTLTISSLQPEDFATYYCQQSSNFLITFGQGTKVEIK
notes: VL domain of variant 1.2; Gly5 linker between VL and VH; VH domain of variant 1.2; Diabody-Fc fusion; nearly homogeneous Db-Fc peak by SEC; In vivo used both as unfractionated mixture and as the Db-Fc fraction from preparative SEC; also called variant 1.2; Db-Fcmix 1.2; source: Expi293, transient expression, purified (rProtein-A); not shown: Fc, C-terminal, kept
In experiment [1], B3 registered a Kd of 1.8 nM.

B4: Db-Fc 2 (Fc fusion)
VH: EVQLVESGGGLVQPGGSLRLSCAASGFNLSSYYIHWVRQAPGKGLEWVASISPYYSYTYYADSVKGRFTISADTSKNTAYLQMNSLRAEDTAVYYCARHSYAALDYWGQGTLVTVSS
VL: DIQMTQSPSSLSASVGDRVTITCRASQSVSSAVAWYQQKPGKAPKLLIYSASSLYSGVPSRFSGSRSGTDFTLTISSLQPEDFATYYCQQAYWPITFGQGTKVEIK
notes: VL domain of clone 2 (human framework of the Db library); Gly5 linker between VL and VH; VH domain of clone 2; Diabody-Fc fusion (VL-Gly5-VH-Fc); Protein-A purified preparation: mainly the dimeric Db-Fc, with a minor earlier-eluting SEC peak; also called Db 2; VL–VH 2; source: Expi293, transient expression, purified (rProtein-A); not shown: Fc, C-terminal, kept
For the molecule B4, in experiment [1], the Kd is 5.1 nM. In addition, the EC50 in experiment [2] was determined as 0.6 nM. In addition, the binding result in the experiment with His-tagged ECD of CD131 and in the experiment with His-tagged ECD of EPHB4 was “no binding” in each case. Further, in experiment [3], the “UT-7/Epo cell proliferation (ATP/luciferase luminescence), EC50” value worked out at 0.4 nM.

B5: Db-Fc 1.3 (Fc fusion)
VH: EVQLVESGGGLVQPGGSLRLSCAASGFNLRSYYMHWVRQAPGKGLEWVASISPHYGYTYYADSVKGRFTISADTSKNTAYLQMNSLRAEDTAVYYCARHGYSAMDYWGQGTLVTVSS
VL: DIQMTQSPSSLSASVGDRVTITCRASQSVSSAVAWYQQKPGKAPKLLIYSASSLYSGVPSRFSGSRSGTDFTLTISSLQPEDFATYYCQQSSDSLFTFGQGTKVEIK
notes: VL domain of variant 1.3; derived from the library on Db 1.1 (PDB 9NWU); Gly5 linker between VL and VH; VH domain of variant 1.3; the fraction is named in the readout of each functional row; also called variant 1.3; VL–VH 1.3; source: Expi293, transient expression, purified (rProtein-A); fractions by preparative SEC; not shown: Fc, C-terminal, kept
As to B5, in experiment [1], the binding result is on record as “binds”.
